Data as given in the supplement of paper PMC9112550, “Optimization of the antimicrobial peptide Bac7 by deep mutational scanning” (BMC Biology, 2022).

Tested on: Escherichia coli TOP10
Test: shrunken log2 fold change of peptide-encoding DNA abundance (4.5 h post-induction vs induction); higher = less antimicrobial activity (less host growth inhibition)
Settings: time post-induction: 4.5 h; library: site-saturation at positions 5, 18, 19, 20
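Further: peptides expressed intracellularly from a pBAD plasmid library in pooled LB shake-flask culture, induced with 0.3% L-arabinose, DNA abundance read by NGS, three biological replicates, DESeq2 with apeglm shrinkage.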

| Sequence | shrunken log2 fold change |
| --- | --- |
| RRIRSRPPRLPRPRPRPPPFPRP | 0.449 |
| RRIRHRPPRLPRPRPRPFYYPRP | -0.0287 |
| RRIRKRPPRLPRPRPRPWYWPRP | -0.151 |
| RRIRLRPPRLPRPRPRPGTDPRP | -0.151 |
| RRIRRRPPRLPRPRPRPIHQPRP | -0.136 |
| RRIRHRPPRLPRPRPRPSIWPRP | -0.244 |
| RRIRSRPPRLPRPRPRPIVTPRP | -0.192 |
| RRIRYRPPRLPRPRPRPQKFPRP | -0.0224 |
| RRIRYRPPRLPRPRPRPYDAPRP | -0.129 |
| RRIRSRPPRLPRPRPRPLNQPRP | 0.479 |
| RRIRFRPPRLPRPRPRPAFSPRP | 0.049 |
| RRIRCRPPRLPRPRPRPHFKPRP | -0.368 |
| RRIRDRPPRLPRPRPRPVARPRP | 0.56 |
| RRIRNRPPRLPRPRPRPSTYPRP | -0.318 |
| RRIRERPPRLPRPRPRPWFRPRP | -0.214 |
| RRIRPRPPRLPRPRPRPYLTPRP | -0.689 |
| RRIRKRPPRLPRPRPRPRVWPRP | 0.809 |
| RRIRGRPPRLPRPRPRPNSVPRP | -0.0052 |
| RRIRIRPPRLPRPRPRPICQPRP | -0.418 |
| RRIRMRPPRLPRPRPRPLFKPRP | -0.0689 |
| RRIRDRPPRLPRPRPRPPMAPRP | -0.0543 |
| RRIRLRPPRLPRPRPRPNGCPRP | 0.00888 |
| RRIRCRPPRLPRPRPRPPYMPRP | -0.288 |
| RRIRERPPRLPRPRPRPDKTPRP | -0.0128 |
| RRIRVRPPRLPRPRPRPMGWPRP | 0.202 |

| Sequence | shrunken log2 fold change |
| --- | --- |
| RRIRDRPPRLPRPRPRPKNSPRP | 0.788 |
| RRIRERPPRLPRPRPRPHACPRP | 0.013 |
| RRIRKRPPRLPRPRPRPLFVPRP | 0.153 |
| RRIRGRPPRLPRPRPRPNCTPRP | 0.172 |
| RRIRTRPPRLPRPRPRPFNEPRP | -0.311 |
| RRIRMRPPRLPRPRPRPELGPRP | 0.276 |
| RRIRSRPPRLPRPRPRPDMRPRP | 0.187 |
| RRIRCRPPRLPRPRPRPLAQPRP | 0.103 |
| RRIRQRPPRLPRPRPRPPTKPRP | 0.209 |
| RRIRWRPPRLPRPRPRPDYRPRP | -0.0424 |
| RRIRARPPRLPRPRPRPKIYPRP | -0.161 |
| RRIRIRPPRLPRPRPRPWQNPRP | 0.00641 |
| RRIRARPPRLPRPRPRPQPPPRP | 0.715 |
| RRIRPRPPRLPRPRPRPPHMPRP | 0.214 |
| RRIRDRPPRLPRPRPRPNTAPRP | -0.0636 |
| RRIRLRPPRLPRPRPRPNVHPRP | -0.505 |
| RRIRVRPPRLPRPRPRPDWEPRP | 0.00682 |
| RRIRQRPPRLPRPRPRPSHDPRP | -0.104 |
| RRIRQRPPRLPRPRPRPDWHPRP | -0.038 |
| RRIRERPPRLPRPRPRPCDAPRP | -0.171 |
| RRIRPRPPRLPRPRPRPRYNPRP | -0.522 |
| RRIRVRPPRLPRPRPRPVWNPRP | 0.152 |
| RRIRNRPPRLPRPRPRPGCNPRP | -0.642 |
| RRIRKRPPRLPRPRPRPWCMPRP | 0.183 |
| RRIRSRPPRLPRPRPRPRCRPRP | 0.385 |

| Sequence | shrunken log2 fold change |
| --- | --- |
| RRIRWRPPRLPRPRPRPTHFPRP | -0.478 |
| RRIRMRPPRLPRPRPRPDMHPRP | 1.15 |
| RRIRERPPRLPRPRPRPWWTPRP | -0.0694 |
| RRIRKRPPRLPRPRPRPWWWPRP | -0.0108 |
| RRIRWRPPRLPRPRPRPGVPPRP | 0.184 |
| RRIRCRPPRLPRPRPRPKLRPRP | 0.564 |
| RRIRCRPPRLPRPRPRPTDDPRP | 2.22 |
| RRIRRRPPRLPRPRPRPTYVPRP | 0.00831 |
| RRIRMRPPRLPRPRPRPRKWPRP | 0.363 |
| RRIRTRPPRLPRPRPRPCFKPRP | -0.362 |
| RRIRKRPPRLPRPRPRPEWHPRP | 0.125 |
| RRIRPRPPRLPRPRPRPVKQPRP | 0.169 |
| RRIRCRPPRLPRPRPRPTAFPRP | 0.0759 |
| RRIRPRPPRLPRPRPRPNLHPRP | -0.203 |
| RRIRQRPPRLPRPRPRPIFRPRP | 0.0716 |
| RRIRRRPPRLPRPRPRPLNAPRP | 0.257 |
| RRIRKRPPRLPRPRPRPISHPRP | 0.17 |
| RRIRMRPPRLPRPRPRPSGRPRP | 0.556 |
| RRIRLRPPRLPRPRPRPCEQPRP | 0.0377 |
| RRIRFRPPRLPRPRPRPQRGPRP | 0.353 |
| RRIRSRPPRLPRPRPRPPCDPRP | 0.0563 |
| RRIRGRPPRLPRPRPRPAMCPRP | 0.465 |
| RRIRDRPPRLPRPRPRPSHSPRP | -0.127 |
| RRIRERPPRLPRPRPRPLKSPRP | -0.169 |
| RRIRDRPPRLPRPRPRPWMIPRP | -0.124 |

| Sequence | shrunken log2 fold change |
| --- | --- |
| RRIRGRPPRLPRPRPRPLLGPRP | 0.833 |
| RRIRARPPRLPRPRPRPLKRPRP | 0.37 |
| RRIRERPPRLPRPRPRPNLGPRP | -0.161 |
| RRIRTRPPRLPRPRPRPTTKPRP | -0.0673 |
| RRIRIRPPRLPRPRPRPDMRPRP | -0.0655 |
| RRIRGRPPRLPRPRPRPAFDPRP | 0.763 |
| RRIRMRPPRLPRPRPRPLQWPRP | 0.104 |
| RRIRCRPPRLPRPRPRPQFCPRP | -0.187 |
| RRIRARPPRLPRPRPRPHGKPRP | 0.175 |
| RRIRIRPPRLPRPRPRPEQFPRP | 0.00851 |
| RRIRGRPPRLPRPRPRPLYPPRP | 0.162 |
| RRIRYRPPRLPRPRPRPLRIPRP | -0.36 |
| RRIRARPPRLPRPRPRPVRNPRP | 0.142 |
| RRIRARPPRLPRPRPRPSQVPRP | 0.0429 |
| RRIRTRPPRLPRPRPRPKCWPRP | 1.72 |
| RRIRWRPPRLPRPRPRPGHKPRP | -0.14 |
| RRIRKRPPRLPRPRPRPKRRPRP | 0.0103 |
| RRIRQRPPRLPRPRPRPESRPRP | -0.00904 |
| RRIRQRPPRLPRPRPRPLCCPRP | -0.382 |
| RRIRGRPPRLPRPRPRPSQNPRP | 0.229 |
| RRIRGRPPRLPRPRPRPQCHPRP | 0.48 |
| RRIRHRPPRLPRPRPRPRCHPRP | -0.555 |
| RRIRSRPPRLPRPRPRPYLFPRP | -0.676 |
| RRIRPRPPRLPRPRPRPLRMPRP | 0.596 |
| RRIRCRPPRLPRPRPRPMPLPRP | -0.643 |

| Sequence | shrunken log2 fold change |
| --- | --- |
| RRIRARPPRLPRPRPRPCVQPRP | 0.217 |
| RRIRWRPPRLPRPRPRPFRCPRP | -0.257 |
| RRIRARPPRLPRPRPRPNHVPRP | -0.31 |
| RRIRDRPPRLPRPRPRPASWPRP | 0.805 |
| RRIRCRPPRLPRPRPRPDVNPRP | -0.281 |
| RRIRARPPRLPRPRPRPWKIPRP | -0.117 |
| RRIRDRPPRLPRPRPRPCRFPRP | -0.00146 |
| RRIRHRPPRLPRPRPRPITQPRP | -0.0204 |
| RRIRVRPPRLPRPRPRPMAQPRP | 0.149 |
| RRIRQRPPRLPRPRPRPGYHPRP | -0.108 |
| RRIRERPPRLPRPRPRPSTLPRP | -0.999 |
| RRIRKRPPRLPRPRPRPSAKPRP | 0.397 |
| RRIRCRPPRLPRPRPRPVTTPRP | -0.0492 |
| RRIRTRPPRLPRPRPRPPPGPRP | 0.668 |
| RRIRSRPPRLPRPRPRPQTNPRP | -0.032 |
| RRIRKRPPRLPRPRPRPAQKPRP | -0.0358 |
| RRIRHRPPRLPRPRPRPGPGPRP | 0.282 |
| RRIRDRPPRLPRPRPRPSLGPRP | 0.487 |
| RRIRGRPPRLPRPRPRPFYTPRP | -0.173 |
| RRIRRRPPRLPRPRPRPWHKPRP | -0.384 |
| RRIRCRPPRLPRPRPRPYGFPRP | -0.515 |
| RRIRTRPPRLPRPRPRPRLRPRP | 0.403 |
| RRIRDRPPRLPRPRPRPTTYPRP | -0.0974 |
| RRIRWRPPRLPRPRPRPLDNPRP | -0.23 |
| RRIRFRPPRLPRPRPRPPYFPRP | 0.0621 |

| Sequence | shrunken log2 fold change |
| --- | --- |
| RRIRWRPPRLPRPRPRPNQAPRP | -0.0796 |
| RRIRKRPPRLPRPRPRPYRTPRP | -0.224 |
| RRIRERPPRLPRPRPRPWNVPRP | -0.0549 |
| RRIRSRPPRLPRPRPRPDEEPRP | 0.895 |
| RRIRARPPRLPRPRPRPIFDPRP | 0.0844 |
| RRIRTRPPRLPRPRPRPMCWPRP | -0.0846 |
| RRIRFRPPRLPRPRPRPAAPPRP | 0.745 |
| RRIRERPPRLPRPRPRPPLWPRP | 0.779 |
| RRIRQRPPRLPRPRPRPAKNPRP | -0.0935 |
| RRIRIRPPRLPRPRPRPPNVPRP | 0.0421 |
| RRIRDRPPRLPRPRPRPMAIPRP | 0.00911 |
| RRIRSRPPRLPRPRPRPGAVPRP | 0.324 |
| RRIRHRPPRLPRPRPRPVWTPRP | -0.225 |
| RRIRKRPPRLPRPRPRPKSRPRP | 0.296 |
| RRIRLRPPRLPRPRPRPVMKPRP | -0.13 |
| RRIRERPPRLPRPRPRPQQEPRP | -0.0361 |
| RRIRMRPPRLPRPRPRPFDGPRP | 0.136 |
| RRIRTRPPRLPRPRPRPQPPPRP | 0.357 |
| RRIRLRPPRLPRPRPRPHRIPRP | -0.0339 |
| RRIRRRPPRLPRPRPRPIIAPRP | 0.0198 |
| RRIRCRPPRLPRPRPRPNANPRP | -0.353 |
| RRIRHRPPRLPRPRPRPEELPRP | -0.00776 |
| RRIRGRPPRLPRPRPRPQYEPRP | 0.0238 |
| RRIRMRPPRLPRPRPRPDYQPRP | -0.304 |
| RRIRMRPPRLPRPRPRPRSCPRP | 0.274 |
